Consider two substances from patent US20240076398A1.

The target of assay [1] is human C5aR1 (complement component 5a receptor 1) (human) (UniProt P21730). The assay is described as follows: flow cytometry, Expi293 with transient human C5aR1, secondary antibody alone; mock 3,052. Background: A flow cytometer gives signals particle by particle.
Assay [2] shares this target. Put plainly: flow cytometry, Expi293 with transient human C5aR1, 100 nM antibody; mock 3,722.

human C5aR1 (complement component 5a receptor 1) (human), sequence (P21730 other isoform, or with tags, fused parts or gaps): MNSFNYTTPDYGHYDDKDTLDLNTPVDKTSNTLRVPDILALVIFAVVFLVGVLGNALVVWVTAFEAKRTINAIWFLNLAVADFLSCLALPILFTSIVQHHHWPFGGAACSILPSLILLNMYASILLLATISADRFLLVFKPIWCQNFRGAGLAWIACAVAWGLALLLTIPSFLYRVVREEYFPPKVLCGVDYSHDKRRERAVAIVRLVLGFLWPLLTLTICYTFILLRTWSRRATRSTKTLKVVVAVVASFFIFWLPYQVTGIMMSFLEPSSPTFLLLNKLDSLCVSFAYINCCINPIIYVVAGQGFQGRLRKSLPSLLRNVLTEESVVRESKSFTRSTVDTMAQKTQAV

As to Anti-human-APC secondary antibody alone, in assay [1], the geometric mean fluorescent intensity is 5350.

For Isotype control (Table 6) (antibody), the geometric mean fluorescent intensity in assay [2] came to 6550.
